Measurements as given in US20260242478A1 (published 2026).
Where no end group is shown, it is not given here.

B1: Phage-3271 (peptide)
peptide: GGVLCQPAWMCIGF
notes: Peptide-180 library clone, tested as clonal M13 phage displaying the peptide fused to pIII
B2: Phage-3268 (peptide)
peptide: VEVKCVPEWMCTGF
notes: as for B1
B3: Phage-3267 (peptide)
peptide: LPYMCTPIWMCIGF
notes: as for B1
B4: Phage-3269 (peptide)
peptide: ISPRCEPLWMCTGL
notes: as for B1
B5: Phage-3270 (peptide)
peptide: LDPMCVPSWMCWGF
notes: as for B1
B6: Phage-3211 (peptide)
peptide: PEAMCRPTWMCAGF
modifications: cysteine pairing not given here; also: fused to phage pIII, linker and order not given here
notes: Peptide-180 library clone, tested as clonal phage supernatant; not shown: pIII filament protein of the bacteriophage, to which the peptide is fused
B7: Phage-3212 (peptide)
peptide: TVPLCKPLWMCYGF
modifications: cysteine pairing not given here; also: fused to phage pIII, linker and order not given here
notes: as for B6
B8: Phage-3239 (peptide)
peptide: DSVLCVPSWMCHGF
modifications: cysteine pairing not given here; also: fused to phage pIII, fusion site not given here

Biological target: T1, PSMA Fab (006 PSMA Fab) (biotinylated for capture on neutravidin plates (site not stated))
T1 construct: also called Anti-PSMA Fab; anti-PSMA Fab
Test: phage ELISA: clonal phage supernatant on biotinylated PSMA Fab captured on neutravidin plate, anti-M13-HRP detection

Going from B1 to B2, the “Phage binding ELISA signal, Anti-PSMA Fab” value rises from 1.9 to 1.91.

B3 and B4 are the same in “Phage binding ELISA signal, Anti-PSMA Fab” value: 1.91 for the first, 1.91 for the second.

In the case of B5, the “Phage binding ELISA signal, Anti-PSMA Fab” value is reported as 1.9.

Biological target: T2, PSMA Fab
T2 construct: also called Anti-PSMA Fab; 006 PSMA Fab
Test: clonal phage ELISA; biotinylated PSMA Fab on neutravidin plate; anti-M13 HRP detection
Protocol: (§1) Clonal phage were harvested as crude supernatants and screened via standard ELISAs. […] Prior to the addition of clonal phage. wells were incubated with blocking buffer and PSMA antigen or blocking buffer alone. Without washing or aspirating, clonal phage supernatants were then added to the wells and incubated for a short time. Wells were then washed followed by detection of bound phage using a horse radish conjugated anti-M13 antibody.

First: EIMLCKPEWMCYGF [Phage-3265]
Second: SIPKCMPEWMCIGL [Phage-3253]
The “Phage binding ELISA signal, Anti-PSMA Fab” value of the first is lower: 1.91 for the first, 1.93 for the second.

Compared with EYQVCKPTWMCTGF [Phage-3266], DGFICRPEWMCQWL [Phage-3256] is higher in “Phage binding ELISA signal, Anti-PSMA Fab” value: 1.91 for the first, 1.93 for the second.

Going from AEMRCIPQWMCSGL [Phage-3259] to IVPWCKPAWMCAVS [Phage-3255], the “Phage binding ELISA signal, Anti-PSMA Fab” value rises from 1.92 to 1.93.

First: EENFCVPKWMCEGF [Phage-3264]
Second: YGALCVPAWMCSGF [Phage-3254]
The “Phage binding ELISA signal, Anti-PSMA Fab” value of the first is lower: 1.91 for the first, 1.93 for the second.

PTPVCKPGWMCDLF [Phage-3261] and LGNLCVPPWMCQGF [Phage-3257] are the same in “Phage binding ELISA signal, Anti-PSMA Fab” value: 1.92 for the first, 1.92 for the second.

Compared with FFKMCIPEWMCSGF [Phage-3263], VSIVCVPEWMCSGF [Phage-3262] is higher in “Phage binding ELISA signal, Anti-PSMA Fab” value: 1.91 for the first, 1.92 for the second.

ENVRCEPMWMCKGF [Phage-3260] and QPGYCVPQWMCMGF [Phage-3258] are the same in “Phage binding ELISA signal, Anti-PSMA Fab” value: 1.92 for the first, 1.92 for the second.

Biological target: T2, PSMA Fab
Test: clonal phage ELISA; biotinylated PSMA Fab on neutravidin plate, wells pre-incubated with PSMA antigen as competitor; anti-M13 HRP detection;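 also: crude clonal phage supernatants added to antigen-treated wells without a wash, incubated briefly, then bound phage read out via horse radish–conjugated anti-M13 antibody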
Protocol: as §1

Compared with EIMLCKPEWMCYGF [Phage-3265], SIPKCMPEWMCIGL [Phage-3253] is lower in “Phage binding ELISA signal, Anti-PSMA Fab in presence of PSMA” value (“Phage binding ELISA signal … of PSMA” below): 0.0998 for the first, 0.0587 for the second.

Compared with EYQVCKPTWMCTGF [Phage-3266], DGFICRPEWMCQWL [Phage-3256] is lower in “Phage binding ELISA signal … of PSMA” value: 0.0904 for the first, 0.0653 for the second.

Going from AEMRCIPQWMCSGL [Phage-3259] to IVPWCKPAWMCAVS [Phage-3255], the “Phage binding ELISA signal … of PSMA” value falls from 0.138 to 0.12.

Compared with EENFCVPKWMCEGF [Phage-3264], YGALCVPAWMCSGF [Phage-3254] is lower in “Phage binding ELISA signal … of PSMA” value: 0.126 for the first, 0.0866 for the second.

Going from PTPVCKPGWMCDLF [Phage-3261] to LGNLCVPPWMCQGF [Phage-3257], the “Phage binding ELISA signal … of PSMA” value rises from 0.0845 to 0.241.

Compared with FFKMCIPEWMCSGF [Phage-3263], VSIVCVPEWMCSGF [Phage-3262] is lower in “Phage binding ELISA signal … of PSMA” value: 0.205 for the first, 0.0721 for the second.

First: ENVRCEPMWMCKGF [Phage-3260]
Second: QPGYCVPQWMCMGF [Phage-3258]
The “Phage binding ELISA signal … of PSMA” value of the first is lower: 0.0648 for the first, 0.0948 for the second.

Biological target: T3, PSMA Fab
T3 construct: also called Anti-PSMA Fab; 006 PSMA Fab
Test: phage binding ELISA; biotinylated PSMA Fab on neutravidin plate, wells pre-incubated with PSMA antigen as competitor, clonal phage supernatant, anti-M13 HRP detection
Protocol: as §1

First: B6
Second: B7
The “Phage binding ELISA signal … of PSMA” value of the first is lower: 0.0674 for the first, 0.184 for the second.

Biological target: T3, PSMA Fab
Test: phage binding ELISA; biotinylated PSMA Fab on neutravidin plate, clonal phage supernatant, anti-M13 HRP detection; blocking buffer alone;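 also: before phage were added, wells were preincubated with blocking buffer either containing PSMA antigen or without it, and phage were then added with no wash in between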
Protocol: as §1

B6 and B7 are the same in “Phage binding ELISA signal, Anti-PSMA Fab” value: 1.97 for the first, 1.97 for the second.

Biological target: T1, PSMA Fab (006 PSMA Fab)
Test: phage ELISA as above, wells pre-incubated with PSMA antigen as competitor
Protocol: as §1

Compared with B1, B2 is higher in “Phage binding ELISA signal … of PSMA” value: 0.0804 for the first, 0.0868 for the second.

Going from B3 to B4, the “Phage binding ELISA signal … of PSMA” value falls from 0.143 to 0.0836.

With B5 the “Phage binding ELISA signal … of PSMA” value was 0.0992.

Biological target: T4, PSMA Fab (006 PSMA Fab)
T4 construct: also called Anti-PSMA Fab; anti-PSMA Fab
Test: phage ELISA; biotinylated PSMA Fab on neutravidin plate, clonal phage supernatant, anti-M13 HRP; blocking buffer alone
Protocol: as §1

B8 and MVERCIPVWMCEGF [Phage-3241] are the same in “Phage binding ELISA signal, Anti-PSMA Fab” value: 1.94 for the first, 1.94 for the second.

Going from GVIACKPHWMCTGF [Phage-3251] to GFRICEPEWMCVGF [Phage-3240], the “Phage binding ELISA signal, Anti-PSMA Fab” value rises from 1.93 to 1.94.

Going from VNVRCEPSWMCTGL [Phage-3243] to MPMHCVPSWMCEGF [Phage-3252], the “Phage binding ELISA signal, Anti-PSMA Fab” value falls from 1.94 to 1.93.

LSAMCVPPWMCTGF [Phage-3244] and ETSMCRPSWMCEGF [Phage-3242] are the same in “Phage binding ELISA signal, Anti-PSMA Fab” value: 1.94 for the first, 1.94 for the second.

First: QDIVCRPSWMCHGF [Phage-3246]
Second: VTHSCVPAWMCVGL [Phage-3248]
The “Phage binding ELISA signal, Anti-PSMA Fab” value of the first is higher: 1.94 for the first, 1.93 for the second.

MMHNCIPYWMCAGF [Phage-3249] and NVPVCIPDWMCVGF [Phage-3250] are the same in “Phage binding ELISA signal, Anti-PSMA Fab” value: 1.93 for the first, 1.93 for the second.

Compared with NILRCEPMWMCTGF [Phage-3245], GLALCKPAWMCQGF [Phage-3247] is lower in “Phage binding ELISA signal, Anti-PSMA Fab” value: 1.94 for the first, 1.93 for the second.

Biological target: T4, PSMA Fab (006 PSMA Fab)
Test: phage ELISA; biotinylated PSMA Fab on neutravidin plate pre-incubated with PSMA antigen as competitor, clonal phage supernatant, anti-M13 HRP
Protocol: as §1

Going from B8 to MVERCIPVWMCEGF [Phage-3241], the “Phage binding ELISA signal, Anti-PSMA Fab with PSMA antigen” value rises from 0.0834 to 0.0937.

Going from GVIACKPHWMCTGF [Phage-3251] to GFRICEPEWMCVGF [Phage-3240], the “Phage binding ELISA signal, Anti-PSMA Fab with PSMA antigen” value falls from 0.085 to 0.0629.

Going from VNVRCEPSWMCTGL [Phage-3243] to MPMHCVPSWMCEGF [Phage-3252], the “Phage binding ELISA signal, Anti-PSMA Fab with PSMA antigen” value rises from 0.0801 to 0.0901.

First: LSAMCVPPWMCTGF [Phage-3244]
Second: ETSMCRPSWMCEGF [Phage-3242]
The “Phage binding ELISA signal, Anti-PSMA Fab with PSMA antigen” value of the first is higher: 0.138 for the first, 0.0918 for the second.

First: QDIVCRPSWMCHGF [Phage-3246]
Second: VTHSCVPAWMCVGL [Phage-3248]
The “Phage binding ELISA signal, Anti-PSMA Fab with PSMA antigen” value of the first is lower: 0.0762 for the first, 0.091 for the second.

Going from MMHNCIPYWMCAGF [Phage-3249] to NVPVCIPDWMCVGF [Phage-3250], the “Phage binding ELISA signal, Anti-PSMA Fab with PSMA antigen” value falls from 0.101 to 0.0851.

Compared with NILRCEPMWMCTGF [Phage-3245], GLALCKPAWMCQGF [Phage-3247] is lower in “Phage binding ELISA signal, Anti-PSMA Fab with PSMA antigen” value: 0.0977 for the first, 0.0706 for the second.
